# Assay results reported in the domain aggregation screens of Martell et al. (2025).
# Test: soluble fraction after stress (log2 fold change); higher = more stays soluble; pooled small domains, quantitative proteomics
# Details: stress: 50 degC
# Summary of the method: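 The stress applied to every library was 50°C. These custom libraries of small protein domains were pooled and measured at high throughput with quantitative proteomics as the read-out. Aggregation propensity is expressed as the base-two logarithm of the fold change in how much of each protein remains soluble. The higher the value, the more of that protein stays in solution.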
row,Sequence,soluble fraction (log2)
1,HMSELPLTQKVAIVMVALGEEASGEVMKHLSDYEIEEITQAIAGLKNISVELMDQILEEYEQHLIAG,-0.459
2,HMDIHSEEYILGQNIRKYRLRLGWSQADLSNAVDIDRADISKYENGAKGIMSSTLLRKFAKALGVSMDALM,-2.76
3,HMYVVLYPGMARDEAVQVMNELQSRGIDYYEKNGNIYVPKTDENSLRMELANLGYPKTTNNYD,0.0519
4,HMAGNNTATKEIAELLIAKGADVNAMNLSPPGREIGGMTPLDMAILGNRNEIADLLRKHGGRTQKELKAE,0.356
5,HMVKNLRKLREELGLTQQRLAELTGISKSRIYSYESLDREPDIAGLITLADFFSVSIDYLVGK,-1.78
6,HMDRYAVRAEELAAALAQYHRHVGVYPENLEDLIAPTGPRGYRGPYLSELPTNPSTSKPDWGYDPATGRVS,0.198
7,HMKDYKSSLQERVQAVGGGQLIYRVNREEGPDHSKTFYMDLFLGDRLIGTGSGRNKKQAEQQAAKEAIERG,0.0941
8,HMDFYVILGVDRAASLSDVKRAYRRLARKHHPDINPGDPESDAFFMRVTEAYETLVDPDRRQEYDEHG,-1.03
9,HMSDLPLLEHARQNLSDDEFRILELTTIYGYRRVEVAKMLGEPISTINWKYNKLIKKVKTFYGEVYN,-1.02
10,HMIGGEDEILKVVLEVLEEKPEAIEQYKNGRTNIVDFLVGQVMKKTRGQANPATTREFMIREIEK,0.0588
11,HMRVQELARDLGVEADTLIALLRQMGIPVTGARSAINDAQQAKVLAKIERERRAGHSDPAKAIQAVLEEAS,0.121
12,HMGVSVNVQPAILDWAMQKAQMGNAGSSVIEMIAKWISGEKAPTFNQIEDVSKKISIPFGFFFLKEPPIE,-0.951
13,HMPRVSIEKIKKVVELLKHNPDYTYSKIGNIVGIGRKTVSGINNGKLYTDLVEELGINEFPI,-0.292
14,HMTKEEKEKREKYEKLMKKADELVTAKNHKEAVTVLGQAKAYANPQQTKEIEEKIKAQTAELDKG,0.239
15,HMNNLVGKTKVLKSNTNIYAYKTMSGKFYSYLPNTRVRVLQDLGYINYIEVIATKRRGYVYENVY,-0.0937
16,HMSAAELFEERQRQYLRGRKSTKNIADNHGTIILRAGETITDQAIDKAKVAGKLVELVMNNE,0.142
17,HMKGLDAAVVDLFKSKGASIVFAGNRLSLSGEVADQATKDELLAKAKAILASLGASVSLDDKLMVKGAKAS,0.0298
18,HMKDPSFELMSVAESFYRSGNVDHAVYALEKYLEVYADGDYTDRAHDLLSQARKGLTYPHGYPPLQI,-1.21
19,HMANPFQELTERELDVLRQVAAGKNNREIAEALFIGEKTVKTHISNILSKLHLADRTQAAVYAWQQGMM,-0.0277
20,HMINGTITFYDDTTLKGELSSLDTKYLFIIPNGLVMPEKIAVSDIEYFNLDNGITLIQDGISKQTY,-1.25
21,HMDETYRRQLEDLAREHGAEYLHGILREVDPASAEAIHANNIKRVIRALEFYHLSGKKISEHNETERQ,0.158
22,HMEDADERRALEVLNQLLDLPEREQEAALAALSLPPALARRVRSLLSVQTRAADLFDTAPSP,-0.0946
23,HMKKVRIPDDPEEAYRKALKTAMNIVGYKDNTEFTLREKLSERGYSGETVDAVAEFMKSKGYV,0.245
24,HMGKKGPELSENEKSIFSILSKSGSMDLTTLKEASGLSNKQWDKGIKGLGKHGLTKVIKTEDALLVEVV,0.0505
25,HMRPRQDRSEETRDRILDAVVELIAERGLAGVSHRAVADRAGVSLSATSYYFGSKAELERAALEEHYRR,-0.709

row,Sequence,soluble fraction (log2)
1,HMSEEGTIPDVSGQDEASAQKALENAGFTNIKSEAVYSEEEQGTVIDTNPTAGTKVSKDTEITMQVSKGSE,-0.34
2,HMTDFDWSLFTQQLKRFNLFLSYDDREKLQTFQTLYGLNELDLAEYVAKASAGEKNGLNFNYLRQLINKEK,-0.465
3,HMTKGVQMFAEQLKRTRQSRHYSQAEIASKLGVTQQAIAKWETGVSTPSPTSISKLSDILGISTDVLLKGA,0.0763
4,HMLLFNPGEVLKGFVLQSGTNNRVLLQIGDSRVIADTQTPLKAGEQLVLRVEETGPKTILQILG,0.101
5,HMYELSDTEWKIIEQVGLGASNKEIAASLHFSEGTIRNYLSVILDKLSLRDRTQLAILYVKMN,-0.058
6,HMFPELSEEEQIIVSLLQKQPDGLQINTLVVESNIPVNRMSGILFELEMKGIIRMAAGGVYRLL,-0.203
7,HMKFPPASDIRRMRKAIDVTQTELAKQSGVSQSTIAKIERGRISASYDTVVKLFETLDEMAK,-0.141
8,HMKDRDISNAVLNILSKDSDHNYNYKQIASVLGVKDPFVRKRIVSVLAQLTKNGQLEEISRGKYQIKN,-0.618
9,HMIGPYAAAKLMTNKDFVKWLSGGVEKSVFNPNSFGQHIRRLVQISEVNPDIRDEINAVVQGLTQ,-0.361
10,HMSNIIGNTAYSAIPDKQYFRLKSETAEKVANYLTENNIPFSGRINGDKTTLTIGQKNVDDYKAAVATVTG,0.0593
11,HMRKVVLEEKEANYYAEPNSESELLGVLKRGIHLTVTDVKKEAGSDGWVKLVHPDGQEGWISGRARIRV,-0.0551
12,HMLEAKQIQDNWESLIKLIEDNFTGERKENLLKMYTHFQDRMMFAPASSKEHFHNAFPGGYVEHVL,-0.293
13,HMSLQDYYQVLGVFYNAGDKEIKRRWKELINQYHPDLAQAKGASPEEIENYTLKMAEINNAYEQIMKSRKA,0.0274
14,HMKYLREEDYLPIGSIIRLDDRNFRVDHVNFMFKSVSLQDMDLTNSGQPIFRSESLPHIRELYEQQQNELV,-1.19
15,HMETEAGIKAYLSSSMIKGIGPVTAQRIVERFGKRTLYVLDQMPEKLLDISGISEAKLEEILNGYRKS,-0.24
16,HMIGKDLLGYEVFSESGDLVGILKDVMWLPHSDVYVITNGGKELLIPVIPEVVKGINHEQGVIVISPM,0.0196
17,HMNKMIIELGEKLKALRTENHLRQDQVARLVNVEKSSISMYETGMRQPSYTTLVRLADVFNVTTDYLLGRK,-2.24
18,HMQPMIQIHTLANHAPVALHIKRNTQRNIIIRARDASSLNLSIPKWFSPAQLQNWLRDNEATLIRILQQAP,-2.49
19,HMKGKWKPIILWQLSKAPQSLSGLRHSIAGISQKMLIQHLNELIHFGFVVRTTFEGYPLKVEYDLTDRGR,-0.231
20,HMGIIVDMSKIKQMLQLSEAGHSNRKIALELGINKETVNNYMQLIRNGRLDIRQLLKMDDPELERRFHA,-0.329
21,HMGFYDLFINLADKVGSLADVTQILAEARINLVNVHILEIREEIDGIAQLTFSSEKDRQKALELLKTKYK,-1.33
22,HMKFDVNAAIRAVLNVTVDKGATLERIMKETNLTSDQLVLPIALLMKTERLHFKRSGTHEVYVSVGKAPDK,-3.02
23,HMNQEIELLLREPDFTSAARLAMAINERFTNSARAIDPTSVKVRMPEGLDQASVDFVARLEDIEMSPDT,-0.0281
24,HMSGWIATGTATSTGNDVRVRSTPDATVNNNILLTLNKGNRFEIDGQTQNGFYHIKVNDTIGWISGLYVKE,-0.499
25,HMEDSAKRHQIMDGARRVFMDLGFDGASMNEIARAAGVSKGTLYVYFTDKNRLFEAIVEQESL,-1.37

row,Sequence,soluble fraction (log2)
1,HMTNEWRKILSNLNGKYQIVMELFYVDGFSTKEIARMLHITEVNVRSRMVRGRKQLEQILTVR,-0.15
2,HMDAMQAFPNPTVDEIHFVTPTTGRVYNAHGQLVMVLKNAQLVNVRQWSAGQYVIVREDGYAVRWIK,-1.04
3,HMSDSISLTLNGDLRRFRAHATIADLVRDIGLDPVKVAVERNLEIVSRSTLEDVVLADGDRLEIVHFV,-1.33
4,HMNPKTELMVYLKKRDEWVASQILSDVLQVSTRTIRKFVKEINMDYQTENVILSSSKGYKLNQNLLSSL,-1.2
5,HMKKATYDVMVREALVSFKKKGATLQSIKKKIKADYAIEANATAVKSAIQKGMEAGSIRKSYDLYFFMD,-2.12
6,HMATPKRGFRKQLAPLVQSGTITREEAGELSRSSGDATALRTKIGELMKAGKLTRKEAGELYSDAFPENA,0.153
7,HMGSLRSALDGIPGIGEQYQKRLLAQFGSVKAMRSASVEDFEAVRGIGRAKAQALYDALHAG,-0.131
8,HMHQLQLDSRSRLHMTGVIEVESFDEATIVLTTTRGTLIVRGENLHLQLLRLDGGEVLVDGTVDSLSYE,-1.5
9,HMADQVLVMTRAVGQGDIVRNADIGLTSVAVDRAVATIPASQLDKIVGRHALVDLSPGQLLGSHSVGE,0.035
10,HMTRQPSAKEHAVLTAVKEGLRRDGRAPTVRALADMTGAASTSTVQRRISALIDLGLLRRTDGTLEVVE,-0.000402
11,HMPERLTYVHPDGAEPMRADKALAAFLSGRISRSRLLGSFSAGKVMAGGKPVEKKLLLRAGDALEVELPEP,0.139
12,HMNDAEEKAEAIEGVKNFMANMEKTDIDFKSKESVLLEQVEEIRKNYPVAQWPVIVKQLYNNIGRL,0.159
13,HMTIGLLISKARTNSGLTQAELATRAGTSQAAIARYESDRVSPSVSTLERVLRAAGEELVISSS,-0.0977
14,HMGTYTSALDGIKGLGKKRKMLLLNTYKSIDVLKSVPLTELSQLIPREVAEALLTKLNRVDD,-0.118
15,HMSDKLTLPVQINGVFRYTIEINPSMQKDEIIDLVKNEERTAKYKQDKEIKNVIVVPGKIVNIII,0.0263
16,HMKGSIMIETILKELKKNNKGFNFLLEKFDISEDELMKIINDLIHDKKVFLNSNNKYEIVSD,-0.238
17,HMIPEGKWMEDPISEGQIKFIETLIKQAIDSGQDALGAEAKQYLSSGEATKGNASSMIDKLKDAL,0.243
18,HMGSREVPFSDFISKVESGSVLEVVLRGRQVEGLTDANERFQTQIPNYPALFEILERNQVRTRVEPT,0.0852
19,HMKPGNFILDLLRTYGQKGTSAQNLMSSSRMFNFSENLIRVTLSRLAARGLIENFERGHYRLAE,-0.333
20,HMELMKPPGYWQSLENAIYESKKVIKEHGFDTLPSSNKLRELDYHGLSRAISVHHSGFPNFREIMNQELGI,0.172
21,HMSSNLTVFTRNNAIIVNSDVVRKLNVFAVDGRLVRSVDLSVGENVINNISRGMYLIDKQKVVV,-0.353
22,HMEIPMRDKLKTYIDYLFAGAPQTAATAETKAEILQNTLDKYDDLIAEGKTPEAAYSLAVSGIGDLGDF,-0.0827
23,HMGDLKALMPGKVTQVLVSGGQKVKVGEPVLLMESMKMEQTIVATKDGDISEILVSEGDTVEVGKIMIKI,0.163
24,HMGGRTITVGISENMTVKDIAQMLEEKGLIEDARLFVVQELLSAYHKEIKPGIYDLSTDMTAAQMLEIMS,-0.464
25,HMSVERIEPPLPLIDTLLALRDALERPLSREENAFLSRRFAGGATRAQIDALAAQFRGAAAAESKV,0.104
